Reference: publication PMC4163024 (Structure (London, England : 1993), 2014)
Substitutions are numbered along the chain they refer to. Blank lines part the entries; values can stand above or below the binder they belong to.

Columns and labels:
crystal structure = biological target: the molecule itself; assay: crystal structure
recombinant DcR3-Ig = biological target: T1, recombinant DcR3-Ig (human, UniProt O95407 30-300); assay: SPR
T1 sequence (looked up): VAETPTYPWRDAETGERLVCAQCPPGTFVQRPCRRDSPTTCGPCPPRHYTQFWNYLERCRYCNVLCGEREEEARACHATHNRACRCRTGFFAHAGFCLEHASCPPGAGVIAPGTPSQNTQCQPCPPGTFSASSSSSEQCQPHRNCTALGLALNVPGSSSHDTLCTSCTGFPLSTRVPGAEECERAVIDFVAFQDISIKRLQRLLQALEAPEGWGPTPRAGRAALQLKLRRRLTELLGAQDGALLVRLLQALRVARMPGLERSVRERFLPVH

recombinant LTβR-Ig = recombinant LTβR-Ig (UniProt P36941 31-227); assay: SPR
Chain of recombinant LTβR-Ig (P36941 31-227): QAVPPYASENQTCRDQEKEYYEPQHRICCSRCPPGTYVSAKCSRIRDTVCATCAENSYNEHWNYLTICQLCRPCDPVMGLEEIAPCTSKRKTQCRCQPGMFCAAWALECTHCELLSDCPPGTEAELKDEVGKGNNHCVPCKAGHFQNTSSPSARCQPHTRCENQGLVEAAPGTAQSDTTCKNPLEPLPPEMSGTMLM

Kd (recombinant DcR3-Ig): 16.7 ± 0.3 nM
Kd (recombinant LTβR-Ig): 11.2 ± 0.6 nM
B1: Soluble LIGHT (residues L83-V240), wild type (ligand, human, UniProt O43557 83-240, looked up)
chain: LIQERRSHEVNPAAHLTGANSSLTGSGGPLLWETQLGLAFLRGLSYHDGALVVTKAGYYYIYSKVQLGGVGCPLGLASTITHGLYKRTPRYPEELELLVSQQSPCGRATSSSRVWWDSSFLGGVVHLEAGEKVVVRVLDERLVRLRDGTRSYFGAFMV
stoichiometry N (crystal structure): 3

Kd (recombinant DcR3-Ig): 153 ± 54 nM
Kd (recombinant LTβR-Ig): 17.2 ± 14 nM
B2: LIGHT mutant 2 (EF loop 195-198 replaced by the TL1A loop) (ligand, human)
chain: B1 chain with R113S, V114N, W116F

Kd (recombinant DcR3-Ig): 36 ± 1.8 nM
Kd (recombinant LTβR-Ig): 21 ± 3.3 nM
B3: LIGHT mutant 1 (GH loop 226-231 replaced by the TL1A loop) (ligand, human)
chain: B1 chain with R144D, L145Y, R146T, D147K, G148E, T149D
